Experimental findings from IntAct's records for PubMed 24270572 are described below.

The labels stand for the following.
B1: Endoribonuclease ZC3H12A (Homo sapiens), Q5D1E8 (parent)
chain: MSGPCGEKPVLEASPTMSLWEFEDSHSRQGTPRPGQELAAEEASALELQMKVDFFRKLGYSSTEIHSVLQKLGVQADTNTVLGELVKHGTATERERQTSPDPCPQLPLVPRGGGTPKAPNLEPPLPEEEKEGSDLRPVVIDGSNVAMSHGNKEVFSCRGILLAVNWFLERGHTDITVFVPSWRKEQPRPDVPITDQHILRELEKKKILVFTPSRRVGGKRVVCYDDRFIVKLAYESDGIVVSNDTYRDLQGERQEWKRFIEERLLMYSFVNDKFMPPDDPLGRHGPSLDNFLRKKPLTLEHRKQPCPYGRKCTYGIKCRFFHPERPSCPQRSVADELRANALLSPPRAPSKDKNGRRPSPSSQSSSLLTESEQCSLDGKKLGAQASPGSRQEGLTQTYAPSGRSLAPSGGSGSSFGPTDWLPQTLDSLPYVSQDCLDSGIGSLESQMSELWGVRGGGPGEPGPPRAPYTGYSPYGSELPATAAFSAFGRAMGAGHFSVPADYPPAPPAFPPREYWSEPYPLPPPTSVLQEPPVQSPGAGRSPWGRAGSLAKEQASVYTKLCGVFPPHLVEAVMGRFPQLLDPQQLAAEILSYKSQHPSE

In the first assay the parent is B1. As to conditions: with ubp10_human USP10, Q14694.
ubp10_human USP10, Q14694, sequence (Q14694 whole entry): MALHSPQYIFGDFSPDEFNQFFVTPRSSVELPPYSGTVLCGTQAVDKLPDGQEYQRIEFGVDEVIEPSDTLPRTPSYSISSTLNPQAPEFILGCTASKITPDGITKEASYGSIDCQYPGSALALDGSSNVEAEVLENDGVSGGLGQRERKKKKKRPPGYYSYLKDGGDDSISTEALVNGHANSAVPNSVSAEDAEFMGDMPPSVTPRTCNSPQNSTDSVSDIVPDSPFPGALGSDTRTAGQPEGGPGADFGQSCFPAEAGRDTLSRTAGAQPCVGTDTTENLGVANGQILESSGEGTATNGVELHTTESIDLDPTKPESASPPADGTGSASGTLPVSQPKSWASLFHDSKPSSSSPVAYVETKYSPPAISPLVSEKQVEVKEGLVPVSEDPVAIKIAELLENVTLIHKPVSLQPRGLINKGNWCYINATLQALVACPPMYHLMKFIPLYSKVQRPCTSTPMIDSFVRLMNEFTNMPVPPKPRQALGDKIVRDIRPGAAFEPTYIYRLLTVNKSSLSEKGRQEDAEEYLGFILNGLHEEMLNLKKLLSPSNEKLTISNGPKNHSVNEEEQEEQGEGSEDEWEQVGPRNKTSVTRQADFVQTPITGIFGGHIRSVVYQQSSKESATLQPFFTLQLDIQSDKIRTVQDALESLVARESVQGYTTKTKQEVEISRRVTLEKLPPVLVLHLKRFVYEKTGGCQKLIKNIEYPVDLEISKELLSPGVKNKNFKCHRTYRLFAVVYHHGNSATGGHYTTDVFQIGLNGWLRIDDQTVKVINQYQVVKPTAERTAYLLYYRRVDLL
With D141N, the “effect of a mutation on the interaction” value is listed as “disrupting interaction”.

The variants in a further assay derive from B1. Conditions: with ubp10_human USP10, Q14694. This is another data set of the same source.
Take C306R: the “effect of a mutation on the interaction” value is given as “disrupting interaction”.
